Ends that are not written are not given here.
T1: recombinant Set9 (Homo sapiens, UniProt Q8WTS6)
T1 construct: purchased Upstate
T1 sequence (Q8WTS6 whole entry, looked up): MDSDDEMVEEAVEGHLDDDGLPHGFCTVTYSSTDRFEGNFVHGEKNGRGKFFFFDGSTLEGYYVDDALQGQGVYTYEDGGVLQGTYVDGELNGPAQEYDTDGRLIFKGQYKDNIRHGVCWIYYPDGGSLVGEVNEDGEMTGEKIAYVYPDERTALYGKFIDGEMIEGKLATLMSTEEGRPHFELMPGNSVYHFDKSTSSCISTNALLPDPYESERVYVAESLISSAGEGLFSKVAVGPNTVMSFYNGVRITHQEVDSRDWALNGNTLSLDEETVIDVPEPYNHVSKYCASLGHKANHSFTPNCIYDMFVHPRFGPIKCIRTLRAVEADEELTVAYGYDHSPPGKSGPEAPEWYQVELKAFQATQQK

T2: p300 (Homo sapiens, UniProt Q09472)
T2 construct: Recombinant GST-p300 HAT was expressed in the BL21 strain of Escherichia coli; GST (N); made in house; host or cells: Escherichia coli BL21
T2 sequence (Q09472 1287-1663 limits assumed): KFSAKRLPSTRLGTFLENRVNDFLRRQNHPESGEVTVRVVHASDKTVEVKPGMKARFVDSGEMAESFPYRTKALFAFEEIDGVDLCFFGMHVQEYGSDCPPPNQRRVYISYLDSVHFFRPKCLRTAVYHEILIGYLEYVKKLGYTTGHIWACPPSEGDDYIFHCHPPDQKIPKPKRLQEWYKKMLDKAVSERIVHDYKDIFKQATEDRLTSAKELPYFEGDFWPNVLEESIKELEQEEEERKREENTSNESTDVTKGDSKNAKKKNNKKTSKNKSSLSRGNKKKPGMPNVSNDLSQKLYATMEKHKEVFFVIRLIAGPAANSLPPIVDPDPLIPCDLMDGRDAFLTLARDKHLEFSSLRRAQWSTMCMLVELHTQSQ

B1: Tat protein: full-length synthetic Tat protein (72 amino acids) (peptide, UniProt P04608 1-72, looked up, fragment)
chain: MEPVDPRLEPWKHPGSQPKTACTNCYCKKCCFHCQVCFITKALGISYGRKKRRQRRRAHQNSQTHQASLSKQ

Experiments:
Format in all cases: biochemical
recombinant Set9 = molecular target: T1, recombinant Set9; experiment: In vitro methylation assay with recombinant Set9 (radiolabeled SAM autoradiography; MALDI-TOF with nonradioactive SAM); conditions: confirmed by MALDI-TOF
Experimental: (§1) Methylation assays were performed as described. (Nishioka et al. (2002) supra. In brief, 2 μg of calf thymus histones (Sigma), synthetic Tat protein or recombinant GST-IκBα were incubated with 0, 0.5, 1 or 2 μg of recombinant Set9 (specific activity 182 mU/mg, Upstate) or 0, 1 and 2 μg of G9a (specific activity 98 mU/mg, Upstate) in a buffer containing 50 mM TrisHCl pH 8.5, 5 mM MgCl2, 4 mM DTT and 1.1 μCi of ^3H-labeled S-adenosyl methionine (SAM) (Perkin Elmer) 30 min at 30° C. Reactions were stopped with sodium dodecyl sulfate (SDS) sample buffer and fractionated in a 15% SDS-polyacrylamide gel electrophoresis (SDS-PAGE) gel. After Coomassie staining and destaining, gels were treated with Amplify (Amersham Biosciences) for 30 min, dried and exposed to hyper-film (Kodak) overnight. The reactions performed with Tat peptides contained 100 μM of the different peptides and 1 μg of Set9 enzyme and were fractionated in a 10-20% Tris-Tricine gel (BioRad). For mass-spectrometry analysis, reactions were performed in the presence of 2 mM SAM (New England Biolabs) and analyzed in a MALDI-TOF instrument. In vitro acetylation assays were performed as described. Ott et al. (1999) supra.

p300 = molecular target: T2, p300; experiment: In vitro acetylation assay with recombinant p300 and 14C-AcCoA; conditions: recombinant p300, 14C-AcCoA, autoradiography
Experimental: Recombinant GST-p300 HAT was expressed in the BL21 strain of Escherichia coli and purified on glutathione-Sepharose beads (Amersham Pharmacia Biotech) following manufacturer's protocol.
as §1

G9a = experiment: In vitro methylation assay with recombinant G9a; conditions: recombinant G9a 0, 1 and 2 μg, radiolabeled SAM
Experimental: as §1

Row | Molecule | methylation by Set9 (recombinant Set9) | acetylation by p300 (p300) | methylation by G9a (G9a)
1 | K50Ac: ARM peptide carrying an acetyl group at position 50 (ISYGRK(Ac)KRRQRRRP; not fully specified) | No methylation | – | –
2 | K51me: ARM peptide monomethylated at K51 (ISYGRKK(Me)RRQRRRP) | – | acetylated | –
3 | B1 | methylated in response to increasing amounts of Set9 enzyme | – | did not result in methylation

From patent US8580492B2, “Screening method for the identification of inhibitors of HIV Tat methylation by the lysine methyltransferase Set7/9” (priority 2007, dated 2013)
